We go through two molecules from PMC7299284, “Studies in humanized mice and convalescent humans yield a SARS-CoV-2 antibody cocktail” (Science (New York, N.y.), 2020).

The target in test [1] is T1, RBD of SARS-CoV-2 spike (construct not told: ACE2 blocking, cross-competition and HDX-MS experiments) (SARS-CoV-2, UniProt P0DTC2).
T1 construct: also called spike protein RBD
Kind of test: cross-competition binding assay; cross-competition of the nine most-potent neutralizing antibodies for binding to RBD (fig. S7).

Test [2] has as its target T1, RBD of SARS-CoV-2 spike (construct not …). As to the kind of experiment: HDX-MS; hydrogen-deuterium exchange mass spectrometry of spike protein RBD with each of nine antibodies. The conditions noted are these: both partners purified.

B1: REGN10987 (antibody, V domains shown)
VH: QVQLVESGGGVVQPGRSLRLSCAASGFTFSNYAMYWVRQAPGKGLEWVAVISYDGSNKYYADSVKGRFTISRDNSKNTLYLQMNSLRTEDTAVYYCASGSDYGDYLLVYWGQGTLVTVSS
VL: QSALTQPASVSGSPGQSITISCTGTSSDVGGYNYVSWYQQHPGKAPKLMIYDVSKRPSGVSNRFSGSKSGNTASLTISGLQSEDEADYYCNSLTSISTWVFGGGTKLTVL
notes: source: CHO cells, transfected, recombinant fully human antibody; copies: 2 + 2
Regarding B1, the binding result in test [1] is given as “binds”.

B2: REGN10933 (antibody, V domains shown)
VH: QVQLVESGGGLVKPGGSLRLSCAASGFTFSDYYMSWIRQAPGKGLEWVSYITYSGSTIYYADSVKGRFTISRDNAKSSLYLQMNSLRAEDTAVYYCARDRGTTMVPFDYWGQGTLVTVSS
VL: DIQMTQSPSSLSASVGDRVTITCQASQDITNYLNWYQQKPGKAPKLLIYAASNLETGVPSRFSGSGSGTDFTFTISGLQPEDIATYYCQQYDNLPLTFGGGTKVEIK
notes: as for B1
Turning to B2, the binding result in test [2] is listed as “binds”.
